Peptide text beside a SMILES is read from it. * marks the point of attachment. Palmitoyl = CCCCCCCCCCCCCCCC(=O)*
How the values were obtained:
[1] = test system: J774.2 murine macrophages; assay: Nitric oxide production of stimulated macrophages; format: cell-based, mouse; details: 24 hours, LPS and stimulated, 32 μM Ac2-26 or epitope equivalent
Experimental: Macrophage culture and characterization: J774.2 murine macrophages (Sigma-Aldrich) were expanded at 4-9×10^5 cells/mL in growth media consisting of Dulbecco's Modified Eagle's Medium (Sigma-Aldrich) containing 4.5 g/L glucose, 2 mM L-glutamine, 10% v/v FBS, 100 U/m penicillin, and 100 μg/mL streptomycin. Cells were passaged using Accutase™ (StemCell Technologies) and used at passage 6-9 for all experiments. The cells were detached with Accutase™ and gentle scraping, counted, and re-suspended in flow cytometry buffer containing 2% w/v bovine serum albumin (BSA, heat shock fraction free of proteases, globulin, and fatty acids, Sigma-Aldrich) and 0.1% w/v sodium azide (Sigma-Aldrich). To minimize non-specific binding of immunoglobin to Fc receptors, macrophages were incubated with anti-mouse CD16/32 antibody (TrueStain FcX™, Biolegend) at 1 μg/1×10^5 cells for 10 minutes at 4° C. APC anti-mouse CD11b antibody or APC Armenian hamster IgG isotype control antibody (Biolegend) were added at 0.4 μg/1×10^5 cells, FPR2 antibody (Novus Biologics) was added at […], and all samples were incubated for 30 minutes at 4° C. The cells were washed once with flow cytometry buffer by centrifugation at 300×g. FPR2 samples were further treated with goat anti-rabbit Alexa Fluor 488 secondary antibody (Invitrogen) at 2 μg/1×10^5 cells for 20 minutes at 4° C., followed by a wash step. Unstained macrophages served as controls and contained 7AAD viability staining solution (Biolegend) at 0.1 μg/1×10^5. All samples were suspended in 4% paraformaldehyde (Electron Microscopy Sciences) in PBS until analysis. […] All samples were analyzed using Attune NxT Acoustic Focusing Cytometer (Thermo Fisher) with at least 2000 events counted per condition.
Therapeutic effects of ApoA1-Ac2-26 PAs: 10% ROS- and MMP-Ac2-26 PAs, as well as Ac2-26 peptide were added together with 10 μg/mL LPS at 32 μM Ac2-26 to macrophages. […] Concerning the quantification of NO, the reducing solution made of KI in acetic acid and water provides an excess of I− that reacts with nitrite yielding ·NO. […]

Zeta potential = format: physicochemical
Experimental: Zeta potential: The PA charge was characterized using a Zetasizer Nano ZS (Malvern). Samples were prepared at 0.5 mM and passed through a 0.2 μm filter (Acrodisc® Syringe Filters with Supor® Membrane, Pall). At least 10 scans were taken per measurement, three measurements per sample at 25° C. and 37° C.

[2] = Small angle x-ray scattering (SAXS) of PA nanofibers; format: physicochemical
Experimental: Small angle x-ray scattering (SAXS): SAXS characterization of the PA nanofibers was performed at the Advanced Photon Source in the Argonne National Laboratory on beamline 5-ID-D, DuPont-Northwestern-Dow Collaborative Access Team Synchrotron Research Center. Samples were prepared at 5 mM in PBS solution, aged at least 24 hours at 4° C., and analyzed in 1.5 mm quartz capillaries (Charles Supper) at 17 keV with a charged couple device photon detector located 245 cm behind the sample. Scattering intensities were collected using wave vector q range of 0.0024 to 0.40 Å^−1. q represents the scattering vector and is calculated as q=4π sin (θ)/λ, with θ as the scattering angle between the incident beam and detector and […] the X-ray wavelength. The plots of scattering intensity versus q were obtained using NIST software Igor Pro v8. The scattering intensities of PBS were subtracted from the PA samples using the Irena SAS macro, and the resulting plots were fitted using NCNR Analysis macro to a polydisperse core shell cylinder model.

Molecule | macrophage activation, nitric oxide production relative to the stimulated control [1] | overall charge (zeta potential) (Zeta potential; 25° C.) | overall charge (zeta potential) (Zeta potential; 37° C.) | SAXS slope of Guinier regime in the low q region ([2]; 5 mM in PBS) | core radius (polydisperse core-shell cylinder model) ([2]; SAXS fit) | radial shell thickness (polydisperse core-shell cylinder model) ([2]; SAXS fit)
10% MMP-Ac2-26 PA: co-assembly of 10 mol % MMP-Ac2-26 PA, 50 mol % E2 filler PA, and 40% ApoA1 PA (VVAAEEGGGPQGIWGQGKAMVSEFLKQAWFIENEEQEYVQTVK) | significantly reduced | −18.1±0.5 mV | maintained | −1.8 | 2.1 nm | 2.0 nm
CCCCCCCCCCCCCCCC(=O)N[C@H](C(=O)N[C@H](C(=O)N[C@@H](C)C(=O)N[C@@H](C)C(=O)N[C@@H](CCC(=O)O)C(=O)N[C@@H](CCC(=O)O)C(=O)NCC(=O)N[C@@H](CC(=O)O)C(=O)N[C@@H](Cc1c[nH]c2ccccc12)C(=O)N[C@@H](Cc1ccccc1)C(=O)N[C@@H](CCCCN)C(=O)N[C@@H](C)C(=O)N[C@@H](Cc1ccccc1)C(=O)N[C@@H](Cc1ccc(O)cc1)C(=O)N[C@@H](CC(=O)O)C(=O)N[C@@H](CCCCN)C(=O)N[C@H](C(=O)N[C@@H](C)C(=O)N[C@@H](CCC(=O)O)C(=O)N[C@@H](CCCCN)C(=O)N[C@@H](Cc1ccccc1)C(=O)N[C@@H](CCCCN)C(=O)N[C@@H](CCC(=O)O)C(=O)N[C@@H](C)C(=O)N[C@@H](Cc1ccccc1)C(N)=O)C(C)C)C(C)C)C(C)C [ApoA1 PA] (Palmitoyl-VVAAEEGDWFKAFYDKVAEKFKEAF-NH2) | did not cause significant decreases in nitric oxide production | – | – | – | – | –

From US12214076B2, “Drug delivery vehicles for atherosclerosis nanomedicine” (Northwestern University, priority 2019, dated 2025)
